Drawing on patent US20190185557 (published 2019), this text covers Kd for five molecules.

Positions count from the first letter of the chain named.

Assay [1] deals with T1, FcγRIIaH (human, UniProt P12318).
T1 chain: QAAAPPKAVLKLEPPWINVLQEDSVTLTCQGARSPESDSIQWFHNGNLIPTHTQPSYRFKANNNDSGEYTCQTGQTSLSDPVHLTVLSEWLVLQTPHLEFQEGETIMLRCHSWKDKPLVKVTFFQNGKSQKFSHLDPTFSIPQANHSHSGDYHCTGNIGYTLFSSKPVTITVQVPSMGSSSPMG
The assay can be described thus: SPR. Background: In SPR one partner is held on a chip, and binding of the other changes the refractive index at the surface.

Assay [2] deals with T2, FcγRIa (human, UniProt P12314).
T2 chain: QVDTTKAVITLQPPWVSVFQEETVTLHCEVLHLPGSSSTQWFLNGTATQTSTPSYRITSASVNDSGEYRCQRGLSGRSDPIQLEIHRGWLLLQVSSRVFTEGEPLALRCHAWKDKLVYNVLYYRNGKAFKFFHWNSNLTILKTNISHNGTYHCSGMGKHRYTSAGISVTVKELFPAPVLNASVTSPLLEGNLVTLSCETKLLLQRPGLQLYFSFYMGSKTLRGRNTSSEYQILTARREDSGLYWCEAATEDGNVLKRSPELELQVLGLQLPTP
The assay is described as follows: SPR.

B1: IL6R-BP507/IL6R-L (antibody)
chain 1: QVQLQESGPGLVKPSETLSLTCAVSGHSISHDHAWSWVRQPPGEGLEWIGFISYSGITNYNPSLQGRVTISRDNSKNTLYLQMNSLRAEDTAVYYCARSLARTTAMDYWGEGTLVTVSSASTKGPSVFPLAPSSKSTSGGTAALGCLVKDYFPEPVTVSWNSGALTSGVHTFPAVLQSSGLYSLSSVVTVPSSSLGTQTYICNVNHKPSNTKVDKKVEPKSCDKTHTCPPCPAPDLLGDDSVFLFPPKPKDTLMISRTPEVTCVVIDVAEEDGPVKFNWYVDGVEVHNAKTKPREEQYNSTYRVVSVLTVLHQDWLNGKEYKCKVSNKALPRPIEKTISKAKGQPREPQVYTLPPSRDELTKNQVSLTCLVKGFYPSDIAVEWESNGQPENNYKTTPPVLDSDGSFFLYSKLTVDKSRWQQGNVFSCSVMHEALHNHYTQESLSLSP
chain 2: not shown
One may read the Kd as the free concentration of one partner at which half of the binding sites on the other are occupied at equilibrium, for simple one-to-one binding. Higher therefore signals lower affinity. Molecule B1 showed a Kd in assay [1] of 1800 nM.

B2: IL6R-BP506/IL6R-L (antibody)
chain 1: B1 chain 1 with Y298D
chain 2: not shown
In assay [1], B2 gave a Kd of 2500 nM.

B3: IL6R-BP480/IL6R-L (antibody)
chain 1: B1 chain 1 with I266V, V268L, A269S, E271D, P274E, R332A
chain 2: not shown
Consider B3, for which, in assay [2], binding was characterised by a dissociation constant (Kd) of 13 nM.

B4: IL6R-BP445/IL6R-L (antibody)
chain 1: B1 chain 1 with P274E
chain 2: not shown
B4: the affinity in assay [1], expressed as Kd, was 1500 nM. That is a single-digit micromolar value.

B5: IL6R-BP490/IL6R-L (antibody)
chain 1: B1 chain 1 with D235E, P274E
chain 2: not shown
B5: the Kd in assay [1] came out at 2400 nM.
